T1: soluble dimeric FcγRIIB-Fc fusion protein (human, UniProt P31994 43-217)
T1 construct: extracellular domain; also called FcRIIB-Fc; FcγRIIB-G2; not shown: hinge-CH2-CH3 domain of human IgG2
T1 sequence (looked up): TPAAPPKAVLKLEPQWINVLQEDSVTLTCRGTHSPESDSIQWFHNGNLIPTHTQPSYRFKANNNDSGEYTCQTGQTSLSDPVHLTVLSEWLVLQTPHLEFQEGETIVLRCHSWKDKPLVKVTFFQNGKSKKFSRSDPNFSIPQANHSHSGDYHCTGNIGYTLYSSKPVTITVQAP


What was measured:
FcγRIIIA 158V = target: T2, FcγRIIIA 158V (human, UniProt P08637 17-208, limits assumed); test: BIAcore, ch4-4-20
T2 construct: valine at 158; also called 3aV158; CD16A 158V
T2 sequence (P08637 17-208 F176V limits assumed): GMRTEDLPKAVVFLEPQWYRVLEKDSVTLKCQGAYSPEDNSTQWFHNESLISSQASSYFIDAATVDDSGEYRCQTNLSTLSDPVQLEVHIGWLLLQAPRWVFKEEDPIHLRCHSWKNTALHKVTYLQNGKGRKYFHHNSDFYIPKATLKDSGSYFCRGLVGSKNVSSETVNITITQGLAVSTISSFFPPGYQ

[1] = target: T1, soluble dimeric FcγRIIB-Fc fusion …; test: BIAcore
[2] = target: T1, soluble dimeric FcγRIIB-Fc fusion …; test: ELISA

Koff WT/Mut (FcγRIIIA 158V) | Kd [1] [nM] | koff [1] [s⁻¹] | ELISA, OD [2] [OD] | Binder
0.86 | – | – | – | ch 4-4-20 E293V, Q295E, A327T (antibody) EPKSCDKTHTCPPCPAPELLGGPSVFLFPPKPKDTLMISRTPEVTCVVVDVSHEDPEVKFNWYVDGVEVHNAKTKPRVEEYNSTYRVVSVLTVLHQDWLNGKEYKCKVSNKTLPAPIEKTISKAKGQPREPQVYTLPPSREEMTKNQVSLTCLVKGFYPSDIAVEWESNGQPENNYKTTPPVLDSDGSFFLYSKLTVDKSRWQQGNVFSCSVMHEALHNHYTQKSLSLSPGK
1.23 | – | – | – | ch 4-4-20 Y319F, P352L, P396L (antibody) EPKSCDKTHTCPPCPAPELLGGPSVFLFPPKPKDTLMISRTPEVTCVVVDVSHEDPEVKFNWYVDGVEVHNAKTKPREEQYNSTYRVVSVLTVLHQDWLNGKEFKCKVSNKALPAPIEKTISKAKGQPREPQVYTLLPSREEMTKNQVSLTCLVKGFYPSDIAVEWESNGQPENNYKTTPLVLDSDGSFFLYSKLTVDKSRWQQGNVFSCSVMHEALHNHYTQKSLSLSPGK
– | 61.4 | 0.085 | 0.4 | chimeric 4-4-20 anti-fluorescein antibody, wild type Fc (antibody) chain 1: not shown chain 2: DVVMTQTPLSLPVSLGDQASISCRSSQSLVHSNGNTYLRWYLQKPGQSPKVLIYKVSNRFSGVPDRFSGSGSGTDFTLKISRVEAEDLGVYFCSQSTHVPWTFGGGTKLEIKRTVAAPSVFIFPPSDEQLKSGTASVVCLLNNFYPREAKVQWKVDNALQSGNSQESVTEQDSKDSTYSLSSTLTLSKADYEKHKVYACEVTHQGLSSPVTKSFNRGEC

— US20110243941A1 (published 2011)
